Laboratory results from PMC3260422 (Structure(London, England:1993), 2011).

Target: T1, human Colony Stimulating Factor-1 (hCSF-1), residues 1-149 (human)
T1 sequence (P09603 whole entry, looked up): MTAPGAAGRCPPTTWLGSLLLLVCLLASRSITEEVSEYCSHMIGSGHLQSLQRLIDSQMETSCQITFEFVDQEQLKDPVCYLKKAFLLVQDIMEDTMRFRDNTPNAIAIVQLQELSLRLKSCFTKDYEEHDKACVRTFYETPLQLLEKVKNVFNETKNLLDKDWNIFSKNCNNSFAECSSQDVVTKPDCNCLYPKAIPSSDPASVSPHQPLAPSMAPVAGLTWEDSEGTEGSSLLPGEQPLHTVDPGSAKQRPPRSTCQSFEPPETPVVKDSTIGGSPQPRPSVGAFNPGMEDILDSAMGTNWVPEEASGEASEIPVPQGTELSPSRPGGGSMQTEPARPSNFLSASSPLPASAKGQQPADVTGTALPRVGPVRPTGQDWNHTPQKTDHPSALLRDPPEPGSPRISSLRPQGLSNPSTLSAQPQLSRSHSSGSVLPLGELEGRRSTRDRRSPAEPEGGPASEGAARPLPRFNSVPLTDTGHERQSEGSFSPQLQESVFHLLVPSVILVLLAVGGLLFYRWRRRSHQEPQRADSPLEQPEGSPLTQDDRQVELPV
Experiment: ITC

B1: human CSF-1 receptor, first three extracellular domains (hCSF-1R_(D1-D3)) (domain or fragment)
chain: IPVIEPSVPELVVKPGATVTLRCVGNGSVEWDGPPSPHWTLYSDGSSSILSTNNATFQNTGTYRCTEPGDPLGGSAAIHLYVKDPARPWNVLAQEVVVFEDQDALLPCLLTDPVLEAGVSLVRVRGRPLMRHTNYSFSPWHGFTIHRAKFIQSQDYQCSALMGGRKVMSISIRLKVQKVIPGPPALTLVPAELVRIRGEAAQIVCSASSVDVNFDVFLQHNNTKLAIPQQSDFHNNRYQKVLTLNLDQVDFQHAGNYSCVASNVQGKHSTSMFFRVVES
modifications: N-linked glycosylation (produced with kifunensine)
A Kd of 213 nM was found for B1 in this work.
